Assay results: paper PMC10723116

Target: H3K9me3 chromatin arrays (12 x 200 bp x 601 oligonucleosomes with H3K9-trimethylated histone H3) (Xenopus | not stated) (UniProt P84233)

degree of association of H3K9me3 chromatin arrays (40 nM) with 5 μM protein, chromatin association assay: 20%
Substance: HP1α-K42 (K42Q mutant of human HP1α) (from UniProt P45973 1-191) (natural protein)
